B1: NF2 (merlin) isoform 7, human, full length (507 aa, lacks exons 2-3 = isoform-1 residues 39-121; exon-16 C-terminus), P35240-4 (parent)
chain: MAGAIASRMSFSSLKRKQPKTFTVRIVTMDAEMEFNCEVKKQILDEKIYCPPEASVLLASYAVQAKYGDYDPSVHKRGFLAQEELLPKRVINLYQMTPEMWEERITAWYAEHRGRARDEAEMEYLKIAQDLEMYGVNYFAIRNKKGTELLLGVDALGLHIYDPENRLTPKISFPWNEIRNISYSDKEFTIKPLDKKIDVFKFNSSKLRVNKLILQLCIGNHDLFMRRRKADSLEVQQMKAQAREEKARKQMERQRLAREKQMREEAERTRDELERRLLQMKEEATMANEALMRSEETADLLAEKAQITEEEAKLLAQKAAEAEQEMQRIKATAIRTEEEKRLMEQKVLEAEVLALKMAEESERRAKEADQLKQDLQEAREAERRAKQKLLEIATKPTYPPMNPIPAPLPPDIPSFNLIGDSLSFDFKDTDMKRLSMEIEKEKVEYMEKSKHLQEQLNELKTEIEALKLKERETALDILHNENSDRGGSSKHNTIKKPQAQGRRPICI

Where “and” joins values, the source holds several entries; their conditions need not be identical. Equal values may be shown once.

The assay covers variants of B1. As to the kind of experiment: reverse yeast two-hybrid deep mutational scan (rY2H-seq): NF2 isoform 7 mutant library as bait mated with wild-type prey strains; selection on medium lacking adenine for non-interacting pairs; NextSeq paired-end sequencing; enrichment vs …. The settings on record: yeast diploids after mating (RBait_S3 x RPrey_S3), 30 °C, selection for reporter genes on NB agar, HIGHER = WEAKER BINDING (the opposite of display enrichments): higher = stronger loss of interaction: reverse Y2H selects yeast in which bait and prey do NOT interact (growth without adenine), so a …, hits-only table, scale: rY2H score, numbering: uniprot, sequence starts at 1. For orientation: A reporter such as luciferase makes a cellular process visible.

[1] abbreviates: with EMILIN1 (elastin microfibril interfacer 1), Q9Y6C2, human ABL2 co-expressed as the kinase-dead K35M mutant ….
Where [2] appears, read: with KDM1A (lysine-specific histone demethylase 1A; the table's label AOF2 is a gene synonym of KDM1A), O60341, human ABL2 co-expressed as the kinase-dead K35M mutant ….
Where [3] appears, read: with EMILIN1 (elastin microfibril interfacer 1), Q9Y6C2, human tyrosine kinase ABL2 co-expressed as the active kinase ….
Where [4] appears, read: with PIK3R3 (phosphatidylinositol 3-kinase regulatory subunit gamma), Q92569, human tyrosine kinase ABL2 co-expressed as the active kinase ….
Where [5] appears, read: with KDM1A (lysine-specific histone demethylase 1A; the table's label AOF2 is a gene synonym of KDM1A), O60341, human tyrosine kinase ABL2 co-expressed as the active kinase ….
[6] abbreviates: with NF2 C-terminal domain (wild type; homomeric NF2-NF2 interaction), P35240, human ABL2 co-expressed as the kinase-dead K35M mutant …, partner unresolved.

E272A: the enrichment turned out to be 3.71 under setting [1] and 2.65 under setting [2].
For the variant Y398L, the enrichment was 1.89 under setting [1], 2.45 under setting [3] and 1.96 under setting [4].
For the variant Y398A, the enrichment runs as follows: under setting [1], 1.36; under setting [5], 3.19.
Turning to D484A, under setting [1], the enrichment amounted to 2.01.
The same measure, in the same setting: the same measure for D30L: 3.86.
Consider S55E, for which the enrichment reads like this: under setting [1], 6.87; under setting [3], 5.24; under setting [2], 5.38; under setting [5], 7.48.
For E323K, the enrichment reads like this: under setting [1], 1.53; under setting [3], 1.69; under setting [4], 4.79.
For the variant Y61L, the enrichment under setting [1] amounted to 3.12; the enrichment under setting [3] came out at 5.18; the enrichment under setting [2] was 9.24; the enrichment under setting [5] turned out to be 7.08; the enrichment under setting [6] was determined as 3.55; the enrichment under setting [4] was 4.61 and 3.92.
As to Q373A, the enrichment under setting [1] is 2.83 and 2.82; the enrichment under setting [2] was 7.31 and 3.66; the enrichment under setting [4] was determined as 4.51.
With A350K, the enrichment under setting [1] came out at 1.95; the enrichment under setting [3] is 4.8 and 3.36.
As to K340A, the enrichment runs as follows: under setting [1], 2.47; under setting [3], 2.67; under setting [2], 3.4 and 3.43; under setting [5], 3.04 and 2.28; under setting [4], 1.46.
For the variant A333K, the enrichment was 1.75 under setting [1]; 5.66 under setting [3]; 4.26 and 3.03 under setting [2].
Turning to A333L, the enrichment came out at 2.47 under setting [1], 1.58 under setting [2] and 1.46 under setting [5].
For the variant V74L, the enrichment under setting [1] worked out at 3.98.
With I412L, the enrichment under setting [1] turned out to be 2.06 and the enrichment under setting [4] was determined as 2.03.
Take P409A: the enrichment under setting [1] came to 2.09; the enrichment under setting [3] is 3.21 and 3.14; the enrichment under setting [2] was determined as 4.62; the enrichment under setting [5] was 3.57 and 4.04.
For A155L, under setting [1], the enrichment was 2.92 and 3.34.
With L156P, the enrichment is 2.26 under setting [1]; 3.08 and 3.61 under setting [2]; 1.95 under setting [5]; 3.25 and 1.98 under setting [6].
As to L158A, the enrichment reads like this: under setting [1], 2.28; under setting [3], 2.56; under setting [5], 11; under setting [6], 1.57.
Regarding L151R, the enrichment was 3.32 and 4.31 under setting [1]; 6.23 and 2.68 under setting [3]; 3.69 under setting [2].
Consider K318L, for which the enrichment runs as follows: under setting [1], 2.66; under setting [3], 1.75.
Regarding K318E, the enrichment by setting is: under setting [1], 3.15; under setting [5], 1.81.
For I334K, the enrichment is, setting by setting: under setting [1], 1.69; under setting [2], 2.46; under setting [5], 3.87; under setting [4], 2.88.
Regarding E338A, the enrichment under setting [1] worked out at 3.66; the enrichment under setting [3] is 4.28; the enrichment under setting [2] was 2.42; the enrichment under setting [5] was 6.92; the enrichment under setting [4] came to 4.09.
As to E338K, under setting [1], the enrichment worked out at 2.51.
On to E338L, for which the enrichment reads like this: under setting [1], 2.57; under setting [3], 2.53; under setting [2], 5.57; under setting [6], 3.03.
For P163L, the enrichment runs as follows: under setting [1], 3.08; under setting [3], 3.88; under setting [2], 7.24; under setting [5], 5.95; under setting [6], 1.78; under setting [4], 12.3.
As to A312G, the enrichment under setting [1] was 1.62.
On to E164K, for which the enrichment turned out to be 2.27 under setting [1] and 2.53 under setting [4].
In the case of E164A, the enrichment by setting is: under setting [1], 2.89 and 5.48; under setting [3], 2.44; under setting [2], 5.57; under setting [6], 1.48; under setting [4], 6.96.
As for I329L, the enrichment is 3 under setting [1]; 2.26 and 2.09 under setting [3]; 4.07 under setting [2]; 3.51 under setting [5]; 1.91 and 3.47 under setting [6].
Regarding A59L, the enrichment was 10.7 and 8.14 under setting [1]; 15.4 under setting [2]; 29 under setting [5]; 7.54 under setting [6]; 25.9 under setting [4].
For the variant I418K, the enrichment is 1.67 under setting [1] and 1.67 under setting [2].
As for N137L, the enrichment runs as follows: under setting [1], 2.2; under setting [3], 2.24; under setting [5], 1.53; under setting [4], 1.5.
On to R115C, for which the enrichment reads like this: under setting [1], 2.2; under setting [2], 3.51 and 3.33; under setting [5], 3.91; under setting [4], 1.62.
In the case of M122E, under setting [1], the enrichment turned out to be 4.7.
On the same count and under the same terms, with N402T the figure was 1.9; with R208C, 2.09.
T397A: the enrichment is, setting by setting: under setting [1], 2.04; under setting [2], 1.66.
Turning to H491N, under setting [1], the enrichment was determined as 1.59.
Same read-out and setting: the same measure for E472R: 2.84 and 2.55.
On to A381K, for which the enrichment by setting is: under setting [1], 4.94; under setting [3], 10.4; under setting [5], 6.12.
On to L342E, for which the enrichment under setting [1] is 3.3 and 9.12; the enrichment under setting [3] came to 3.94; the enrichment under setting [2] was found to be 4.91; the enrichment under setting [6] worked out at 1.9.
Consider L342A, for which the enrichment under setting [1] came to 2.66, the enrichment under setting [3] turned out to be 3.99 and the enrichment under setting [2] amounted to 2.28.
Turning to R293A, the enrichment is 1.56 under setting [1]; 4.55 and 5.13 under setting [3]; 2.38 under setting [2]; 6.57 under setting [5]; 1.81 under setting [6]; 10.8 and 3.63 under setting [4].
